For experiment [1], the target named is T1, panel of four distinct ZIKV strains (H/PF/2013; MR766, MRS-OPY and PV 10552). The experiment in a line: cell-based or functional assay.
The target of experiment [2] is T1, panel of four distinct ZIKV strains …. The experiment in a line: cell-based or functional assay. This is another data set of the same source.

Like-named read-outs stand apart in the source and are kept apart here.

B1: ZKA190 (antibody, V domains shown)
VH: QVQLVESGGGVVQPGRSLRLSCAASGFTFSKYGMHWVRQAPGKGLEWVAVISYEGSNKYYADSVKGRFTISRDNSKNTLYLQMNSLRAEDTAVYYCAKSGTQYYDTTGYEYRGLEYFGYWGQGTLVTVSS
VL: EIVLTQSPGTLSLSPGERATLSCRASQSVSSSYLAWYQQKRGQAPRLLIYDASSRATGIPDRFSGSGSGTDFTLTISRLEPEDFAVYYCQQYGRSRWTFGQGTKVEIK
In the case of B1, the IC50, neutralization of four ZIKV strains on Vero cells (flow cytometry) in experiment [1] fell in the range of 0.6 to 8 ng/mL; in experiment [2], 0.004 to 0.05 nM.
